Data: US20230143604A1, “QW DOSING OF GIP RECEPTOR AGONIST PEPTIDE COMPOUNDS AND USES THEREOF” (TAKEDA PHARMACEUTICAL COMPANY LIMITED, priority 2020, published 2023)
Starred links: 1 amine or outer side, 2 acyl side, 3 side chain; linkers in the order of their positions; H or OH if unused. Non-standard residues stand in square brackets, D forms with d. Groups on a side chain read outwards from the residue. No end group written: not given here. *: point of attachment. C20 diacid = O=C(O)CCCCCCCCCCCCCCCCCCC(=O)*; C18 diacid = O=C(O)CCCCCCCCCCCCCCCCC(=O)*; γGlu = O=C(O)[C@H](CCC(=O)[*:2])N[*:1]; NMeY = CN[C@@H](Cc1ccc(O)cc1)C(=O)O; AEEA = NCCOCCOCC(=O)O; Aib = CC(C)(N)C(=O)O

T1: full-length human GIPR with an N-terminal FLAG tag, overexpressed on HEK-293T cells (human, UniProt P48546 22-466)
T1 sequence (looked up): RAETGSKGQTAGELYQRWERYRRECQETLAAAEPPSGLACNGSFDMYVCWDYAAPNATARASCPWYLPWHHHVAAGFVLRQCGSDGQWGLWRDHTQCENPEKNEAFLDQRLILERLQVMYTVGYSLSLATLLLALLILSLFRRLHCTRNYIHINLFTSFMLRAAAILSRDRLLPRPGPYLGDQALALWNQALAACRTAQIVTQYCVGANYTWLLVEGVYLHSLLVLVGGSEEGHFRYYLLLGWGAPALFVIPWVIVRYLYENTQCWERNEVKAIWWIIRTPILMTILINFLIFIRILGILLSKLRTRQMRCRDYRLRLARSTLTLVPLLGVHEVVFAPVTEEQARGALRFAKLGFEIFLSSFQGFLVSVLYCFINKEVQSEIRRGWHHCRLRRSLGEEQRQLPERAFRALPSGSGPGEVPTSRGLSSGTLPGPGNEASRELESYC

B1: Compound No. 162 (peptide)
peptide: H-Y[Aib]EGTFISDYSIALDK[Aib]K([AEEA-AEEA-γGlu-C18 diacid])QADFVEWLLAQRG-OH
SMILES: CC[C@H](C)[C@H](NC(=O)[C@H](CO)NC(=O)[C@H](Cc1ccc(O)cc1)NC(=O)[C@H](CC(=O)O)NC(=O)[C@H](CO)NC(=O)[C@@H](NC(=O)[C@H](Cc1ccccc1)NC(=O)[C@@H](NC(=O)CNC(=O)[C@H](CCC(=O)O)NC(=O)C(C)(C)NC(=O)[C@@H](N)Cc1ccc(O)cc1)[C@@H](C)O)[C@@H](C)CC)C(=O)N[C@@H](C)C(=O)N[C@@H](CC(C)C)C(=O)N[C@@H](CC(=O)O)C(=O)N[C@@H](CCCCN)C(=O)NC(C)(C)C(=O)N[C@@H](CCCCNC(=O)COCCOCCNC(=O)COCCOCCNC(=O)CC[C@H](NC(=O)CCCCCCCCCCCCCCCCC(=O)O)C(=O)O)C(=O)N[C@@H](CCC(N)=O)C(=O)N[C@@H](C)C(=O)N[C@@H](CC(=O)O)C(=O)N[C@@H](Cc1ccccc1)C(=O)N[C@H](C(=O)N[C@@H](CCC(=O)O)C(=O)N[C@@H](Cc1c[nH]c2ccccc12)C(=O)N[C@@H](CC(C)C)C(=O)N[C@@H](CC(C)C)C(=O)N[C@@H](C)C(=O)N[C@@H](CCC(N)=O)C(=O)N[C@@H](CCCNC(=N)N)C(=O)NCC(=O)O)C(C)C
B2: Compound No. 156 (peptide)
peptide: Y[Aib]EGTFISDYSIALDK[Aib]AQRK([AEEA-AEEA-γGlu-γGlu-C18 diacid])FVEWLLAQRG-OH
modifications: N-terminus assumed
SMILES: CC[C@H](C)[C@H](NC(=O)[C@H](CO)NC(=O)[C@H](Cc1ccc(O)cc1)NC(=O)[C@H](CC(=O)O)NC(=O)[C@H](CO)NC(=O)[C@@H](NC(=O)[C@H](Cc1ccccc1)NC(=O)[C@@H](NC(=O)CNC(=O)[C@H](CCC(=O)O)NC(=O)C(C)(C)NC(=O)[C@@H](N)Cc1ccc(O)cc1)[C@@H](C)O)[C@@H](C)CC)C(=O)N[C@@H](C)C(=O)N[C@@H](CC(C)C)C(=O)N[C@@H](CC(=O)O)C(=O)N[C@@H](CCCCN)C(=O)NC(C)(C)C(=O)N[C@@H](C)C(=O)N[C@@H](CCC(N)=O)C(=O)N[C@@H](CCCNC(=N)N)C(=O)N[C@@H](CCCCNC(=O)COCCOCCNC(=O)COCCOCCNC(=O)CC[C@H](NC(=O)CC[C@H](NC(=O)CCCCCCCCCCCCCCCCC(=O)O)C(=O)O)C(=O)O)C(=O)N[C@@H](Cc1ccccc1)C(=O)N[C@H](C(=O)N[C@@H](CCC(=O)O)C(=O)N[C@@H](Cc1c[nH]c2ccccc12)C(=O)N[C@@H](CC(C)C)C(=O)N[C@@H](CC(C)C)C(=O)N[C@@H](C)C(=O)N[C@@H](CCC(N)=O)C(=O)N[C@@H](CCCNC(=N)N)C(=O)NCC(=O)O)C(C)C
B3: Compound No. 172 (peptide)
peptide: H-Y[Aib]EGTFISDYSI[Aib]LDKIK([AEEA-AEEA-γGlu-C18 diacid])QADFVNWLLAQRG-OH
SMILES: CC[C@H](C)[C@H](NC(=O)[C@H](CCCCN)NC(=O)[C@H](CC(=O)O)NC(=O)[C@H](CC(C)C)NC(=O)C(C)(C)NC(=O)[C@@H](NC(=O)[C@H](CO)NC(=O)[C@H](Cc1ccc(O)cc1)NC(=O)[C@H](CC(=O)O)NC(=O)[C@H](CO)NC(=O)[C@@H](NC(=O)[C@H](Cc1ccccc1)NC(=O)[C@@H](NC(=O)CNC(=O)[C@H](CCC(=O)O)NC(=O)C(C)(C)NC(=O)[C@@H](N)Cc1ccc(O)cc1)[C@@H](C)O)[C@@H](C)CC)[C@@H](C)CC)C(=O)N[C@@H](CCCCNC(=O)COCCOCCNC(=O)COCCOCCNC(=O)CC[C@H](NC(=O)CCCCCCCCCCCCCCCCC(=O)O)C(=O)O)C(=O)N[C@@H](CCC(N)=O)C(=O)N[C@@H](C)C(=O)N[C@@H](CC(=O)O)C(=O)N[C@@H](Cc1ccccc1)C(=O)N[C@H](C(=O)N[C@@H](CC(N)=O)C(=O)N[C@@H](Cc1c[nH]c2ccccc12)C(=O)N[C@@H](CC(C)C)C(=O)N[C@@H](CC(C)C)C(=O)N[C@@H](C)C(=O)N[C@@H](CCC(N)=O)C(=O)N[C@@H](CCCNC(=N)N)C(=O)NCC(=O)O)C(C)C

The binders below were run against T1, full-length human GIPR with an … (assay: cell-based or functional assay).

Binder	Human GIPR cAMP EC50, HEK293T [nM]
H-Y[Aib]EGTFISDYSIALDKIK([AEEA-AEEA-γGlu-C18 diacid])Q[Aib]DFVEWLLAQRG-OH [Compound No. 160]	0.0003
[NMeY][Aib]EGTFISDYSI[Aib]LDK[Aib]AQ[Aib]K([AEEA-AEEA-γGlu-γGlu-C18 diacid])FVNWLLAQRG-OH [Compound No. 211]	0.0005
YXEGTFISDYSIAXDKAAQQXFVEWLLAQRG (N-terminus H; Aib at 2, 14; Km at 21 = Lys(2OEGgEgE-C18DA); C-terminus OH) [Compound No. 157]	0.0003
YXEGTFISDYSIAXDKAAQAXFVEWLLAQRG (N-terminus H; Aib at 2, 14; Km at 21 = Lys(2OEGgEgE-C18DA); C-terminus OH) [Compound No. 158]	0.0005
B1	0.0004
B2	0.0013
[NMeY][Aib]EGTFISDYSI[Aib]LDR[Aib]AQ[Aib]K([AEEA-AEEA-γGlu-γGlu-C20 diacid])FVNWLLAQRG-OH [Compound No. 159]	0.0009
Me-Y[Aib]EGTFISDYSI[Aib]LDR[Aib]AQ[Aib]KFVNWLLAQRG-OH (not fully specified (residues 1, 21)) [Compound No. 209]	0.0004
H-Y[Aib]EGTFISDYSIALDKAK([AEEA-AEEA-γGlu-C18 diacid])Q[Aib]DFVEWLLAQRG-OH [Compound No. 161]	0.0001
[NMeY][Aib]EGTFISDYSI[Aib]LDK[Aib]AQ[Aib]K([AEEA-AEEA-γGlu-γGlu-C18 diacid])FVNWLLAQRG-OH [Compound No. 220]	0.0005

The binders below were run against full-length human GLP-1R with an N-terminal FLAG tag, overexpressed on HEK-293T cells (human, UniProt P43220 24-463) (assay: cell-based or functional assay).

Binder	Human GLP1R cAMP EC50, HEK293T [nM]
H-Y[Aib]EGTFISDYSIALDKIK([AEEA-AEEA-γGlu-C18 diacid])Q[Aib]DFVEWLLAQRG-OH [Compound No. 160]	537
YXEGTFISDYSIAMDKIHQQDFVNWLLAQXGKKNDWKHNITQ (N-TER cell blank; Aib at 2; Km at 30 = Lys(2OEGgE-C18DA); C-terminus OH) [Compound No. 189]	219
YXEGTFISDYSIAXDKAAQQXFVEWLLAQRG (N-terminus H; Aib at 2, 14; Km at 21 = Lys(2OEGgEgE-C18DA); C-terminus OH) [Compound No. 157]	437
YXEGTFISDYSIAXDKAAQAXFVEWLLAQRG (N-terminus H; Aib at 2, 14; Km at 21 = Lys(2OEGgEgE-C18DA); C-terminus OH) [Compound No. 158]	339
B1	589
B2	10.2
[NMeY][Aib]EGTFISDYSIALDR[Aib]AQ[Aib]K([AEEA-AEEA-γGlu-γGlu-C18 diacid])FVNWLLAQRG-OH [Compound No. 213]	40.7
[NMeY][Aib]EGTFISDYSI[Aib]LDR[Aib]AQ[Aib]K([AEEA-AEEA-γGlu-γGlu-C20 diacid])FVNWLLAQRG-OH [Compound No. 159]	11.7
H-Y[Aib]EGTFISDYSIALDKAK([AEEA-AEEA-γGlu-C18 diacid])Q[Aib]DFVEWLLAQRG-OH [Compound No. 161]	85.1
B3	93.3
